Measured values published in PMC4081097.

Molecular target: T1, AbaSI-C3S (Acinetobacter baumannii SDF, UniProt B0VN39 1-321, C2S;C309S;C321S)
T1 sequence: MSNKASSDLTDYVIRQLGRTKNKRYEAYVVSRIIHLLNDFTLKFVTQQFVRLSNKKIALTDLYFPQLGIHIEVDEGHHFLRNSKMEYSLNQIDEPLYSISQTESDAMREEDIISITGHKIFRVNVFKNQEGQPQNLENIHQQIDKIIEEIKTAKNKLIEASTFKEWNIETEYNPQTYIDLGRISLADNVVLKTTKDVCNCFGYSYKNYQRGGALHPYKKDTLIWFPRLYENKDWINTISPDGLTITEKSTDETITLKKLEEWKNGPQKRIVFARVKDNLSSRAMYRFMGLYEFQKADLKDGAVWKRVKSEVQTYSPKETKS
Test: X-ray crystallography

B1: 14+4 product DNA (dsDNA)
DNA 1: TGCTCGATACAATAGGCC
DNA 2: TATTGTATCGAGCA
modifications: 5hmC at top position 5
Question: Does B1 bind?
Answer: Result: binds
